Reference: patent publication US20220372154A1 (APEXIGEN, published 2022)

Key:
[1] = target: T1, human TNFR1-His tagged protein (human, UniProt P19438 30-211, limits assumed); assay: ELISA on coated TNFR1, OD 450 nm
T1 construct: also called soluble human TNFR1; not shown: His tag
T1 sequence (looked up): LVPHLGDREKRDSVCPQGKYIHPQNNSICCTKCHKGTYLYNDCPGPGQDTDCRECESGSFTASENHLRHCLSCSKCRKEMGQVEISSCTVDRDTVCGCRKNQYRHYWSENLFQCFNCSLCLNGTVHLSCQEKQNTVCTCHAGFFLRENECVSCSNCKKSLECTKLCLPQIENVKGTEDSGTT
Description: (§1) To test binding to TNFR family members, target proteins were coated on ELISA plates at 1 μg/mL at 4° C. overnight. Plates were washed, blocked, and antibodies were added at indicated concentrations for 1 hour at RT. Positive control antibodies for each protein were used at ˜1 ug/mL. Antibodies were washed and detected with anti-human IgG HRP for 1 hour. Assay was developed using TMB substrate for 10 minutes. For cell-binding, human CD4+ T cells purified from buffy coats were cultured in flat-bottom plates with anti-CD3/CD28 for 24 hours. Cells were harvested and stained for viability, CD4, CD25 and FOXP3. Test antibody staining was detected using anti-human IgG APC. Binding titration of test antibodies was evaluated on CD4+CD25hiFOXP3+ regulatory T cells and plotted as percent binding.

[2] = target: T2, herpesvirus entry mediator (HVEM) (UniProt Q92956 39-202, limits assumed); assay: ELISA on coated HVEM, OD 650 nm
T2 sequence (looked up): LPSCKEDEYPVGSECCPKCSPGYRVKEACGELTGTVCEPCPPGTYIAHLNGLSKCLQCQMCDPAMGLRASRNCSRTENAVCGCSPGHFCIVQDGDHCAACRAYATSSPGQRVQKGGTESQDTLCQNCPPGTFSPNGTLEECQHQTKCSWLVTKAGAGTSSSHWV
Description: as §1

[3] = target: T3, human TNFR2 expressed on cells (human, UniProt P20333 23-461); assay: blocking of biotinylated TNF-α on TNFR2-CHO cells, flow cytometry
T3 construct: whole, on cells; also called hTNFR2 (cell); CHO-TNFR2
T3 sequence (looked up): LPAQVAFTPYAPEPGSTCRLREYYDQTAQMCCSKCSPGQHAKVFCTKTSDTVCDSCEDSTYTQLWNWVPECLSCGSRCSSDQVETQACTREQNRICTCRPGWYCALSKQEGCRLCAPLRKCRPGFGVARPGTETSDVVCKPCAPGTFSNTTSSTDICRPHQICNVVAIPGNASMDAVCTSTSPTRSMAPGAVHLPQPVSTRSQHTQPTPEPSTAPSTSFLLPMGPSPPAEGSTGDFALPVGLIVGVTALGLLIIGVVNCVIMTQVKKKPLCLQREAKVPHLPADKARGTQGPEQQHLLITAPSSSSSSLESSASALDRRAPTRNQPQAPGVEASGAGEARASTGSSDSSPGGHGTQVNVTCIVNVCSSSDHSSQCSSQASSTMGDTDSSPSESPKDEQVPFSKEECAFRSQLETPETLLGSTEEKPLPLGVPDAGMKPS
Description: TNFR2-overexpressing CHO cells were plated at 100,000 cells per well. Cells were incubated with the indicated antibodies for 30 minutes on ice. […] Cells were analyzed using Cytoflex or MACSQuant flow cytometer. Assay was repeated twice.

[4] = target: T4, human TNFR2-His tagged protein (soluble) (human, UniProt P20333 23-257); assay: ELISA on coated hTNFR2-His, OD 450 nm
T4 construct: also called hTNFR2 (soluble); soluble TNFR2-His; not shown: His tag
T4 sequence (looked up): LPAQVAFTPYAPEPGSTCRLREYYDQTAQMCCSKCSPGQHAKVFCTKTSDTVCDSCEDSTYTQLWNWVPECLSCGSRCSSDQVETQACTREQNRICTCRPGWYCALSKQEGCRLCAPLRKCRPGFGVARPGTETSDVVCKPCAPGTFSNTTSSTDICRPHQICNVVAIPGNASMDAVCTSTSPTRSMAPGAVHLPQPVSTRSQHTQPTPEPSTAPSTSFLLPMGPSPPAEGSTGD

CD40 = CD40 (UniProt P25942 21-193, limits assumed); assay: ELISA on coated CD40, OD 650 nm
CD40, sequence (P25942 21-193 limits assumed): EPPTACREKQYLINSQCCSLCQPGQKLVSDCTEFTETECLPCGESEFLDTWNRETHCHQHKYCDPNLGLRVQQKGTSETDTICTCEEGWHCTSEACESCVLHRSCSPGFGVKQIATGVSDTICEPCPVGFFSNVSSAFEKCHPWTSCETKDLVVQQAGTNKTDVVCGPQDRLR
Description: as §1

binding result [1]: no binding (tested: about 67 nM) | binding result [2]: no binding (tested: about 67 nM) | IC50 [3]: 149 pM | EC50 (read off the curve) [4]: ~200 pM | binding result (CD40): no binding (tested: about 67 nM)
B1: humanized antibody h600-25-71 (antibody, V domains shown)
VH: EVQLVESGGGLVQPGGSLRLSCAASGIDLSSYAMGWVRQAPGKGLEWVGDISTSGNAYYATWVKGRFTISRDNSKNTLYLQMNSLRAEDTAVYYCARADYGGETYAFDPWGQGTLVTVSS
VL: DIQMTQSPSSLSASVGDRVTITCQASQSISSYLNWYQQKPGKAPKLLIYSASTLASGVPSRFSGSGSGTDFTLTISSLQPEDFATYYCQQGYSDSNIDNVFGGGTKVEIK
notes: also called Ab 25-71; clone 25-71
